Here are results for one protein from PMC5618700.

The data set concerns the molecule itself. In words: SDS-PAGE without reducing agent (oligomerization assay) with Western blot; PLY 0.4 uM in solution without cholesterol or membranes, incubated 1 hr at 37°C with 0, 2.18, 4.36 or 8.73 uM EGCG (control with DMSO only); 5x loading buffer without β-ME, 10 min at 50°C; 6% SDS-PAGE, Western blot; oligomerization reduced by EGCG in a concentration-dependent manner. Background: Immunoblotting shows a protein as a band on a membrane.

B1: Pneumolysin (PLY), wild type, His-tagged (natural protein, Streptococcus pneumoniae D39, UniProt Q04IN8 1-471, looked up)
chain: MANKAVNDFILAMNYDKKKLLTHQGESIENRFIKEGNQLPDEFVVIERKKRSLSTNTSDISVTATNDSRLYPGALLVVDETLLENNPTLLAVDRAPMTYSIDLPGLASSDSFLQVEDPSNSSVRGAVNDLLAKWHQDYGQVNNVPARMQYEKITAHSMEQLKVKFGSDFEKTGNSLDIDFNSVHSGEKQIQIVNFKQIYYTVSVDAVKNPGDVFQDTVTVEDLKQRGISAERPLVYISSVAYGRQVYLKLETTSKSDEVEAAFEALIKGVKVAPQTEWKQILDNTEVKAVILGGDPSSGARVVTGKVDMVEDLIQEGSRFTADHPGLPISYTTSFLRDNVVATFQNSTDYVETKVTAYRNGDLLLDHSGAYVAQYYITWDELSYDHQGKEVLTPKAWDRNGQDLTAHFTTSIPLKGNVRNLSVKIRECTGLAWEWWRTVYEKTDLPLVRKRTISIWGTTLYPQVEDKVEND
notes: no cleavage of the tag is described; also called PLY-WT
Take B1: the binding result is “binds”.
